Measured values from patent publication US20250205362A1, “LIPID NANOPARTICLES” (NATIONAL UNIVERSITY CORPORATION HOKKAIDO UNIVERSITY, priority 2022, published 2025).
Numbering of substitutions follows the chain as printed. Marks after values point to notes of the source that are not given here.

How the values were obtained:
[1] = Blood test 24 hours after administration (toxicity); type: in vivo, mouse; settings: mice
Description: TTR-RNP-ssODN-loaded lipid nanoparticles were intravenously injected to BALB/c mice (female, 4 weeks old) at 2 mg RNP/kg body weight for two consecutive days. One week after the last injection, mice were anesthetized, weighed, and blood was collected. […] Hematological parameters in serum were measured by Oriental Yeast Co., Ltd.
In addition, for mice administered with Fluc mRNA-loaded lipid nanoparticles containing CL4F12-e-4, blood was collected 24 hours after administration and tested for each component. As a control, a blood test was also performed in a similar manner on mice that received PBS instead of the Fluc mRNA-loaded lipid nanoparticles. The results are shown in Table 14 (n=3, unpaired t-test). In the table, TP stands for total protein, AST for aspartate transaminase, ALB for albumin, LDH for […], BUN for blood urea nitrogen, γ-GT for γ-glutamyl transpeptidase, CRE for creatinine, T-CHO for total cholesterol, IP for inorganic phosphate, TG for triglyceride, HDL-C for high-density lipoprotein cholesterol, T-BIL for total bilirubin, and GLU for glucose, respectively. Additionally, ** indicates P<0.01, and * indicates P<0.05.

[2] = Average particle diameter, PdI and zeta potential of lipid nanoparticles (dynamic light scattering); type: physicochemical
Description: The mean particle diameter (number average value), ζ-mean particle diameter, and polydispersity index (PdI) of the lipid nanoparticles in PBS(−) (pH 7.4), as well as the zeta potential in 10 mM HEPES buffer (pH 7.4), were measured using an analyzing device, Zetasizer Nano ZS ZEN3600 (Malvern), which utilizes dynamic light scattering.

[3] = Encapsulation rate of lipid nanoparticles (Ribogreen); type: physicochemical
Description: The encapsulation rate of the lipid nanoparticles was calculated by measuring the amount of encapsulated nucleic acid (the amount of ssODN in the case of RNP-ssODN) using an RNA intercalator Ribogreen (manufactured by Life Technologies).

BALB/c mice = test: Measurement of Fluc activity in tissues after iv Fluc mRNA-loaded lipid nanoparticles; type: in vivo, mouse; settings: Example 2, FIG. 3; CL4F11-e-3 LNP with DSPC or DOPE; Balb/c mice
Description: First, lipid nanoparticles encapsulating Fluc mRNA (Fluc mRNA-loaded lipid nanoparticles) were intravenously injected into BALB/c mice (female, 4 weeks old) at a dose of 0.01 mg mRNA/kg body weight. Six hours after intravenous injection, the mice were euthanized, and each tissue was collected, frozen in liquid nitrogen, and stored at −80° C. The tissues were homogenized in passive lysis buffer (Promega) using a bead cell disrupter (Micro Smash MS-100R, TOMY Seiko). Tissue debris was removed by centrifugation and the supernatant was collected. Fluc activity in the supernatant was measured using a luciferase assay system (E1500, Promega) according to the manufacturer's protocol. Luminescence was measured using a luminometer (Luminescencer-PSN, ATTO). The protein concentration was determined using a commercially available measurement kit (BCA Protein Assay Kit, Pierce). Fluc activity was expressed as relative light units (RLU) per mg of protein.

dsDNA from the TTR locus = test: In vitro DNA cleavage activity; type: biochemical, mouse; settings: n=3
Description: Genomic DNA was collected and purified from BALB/c mouse liver tissue using a commercially available nucleic acid extraction kit (NucleoSpin Tissue, MACHEREY-NAGEL) according to the manufacturer's protocol.
The dsDNA from the TTR locus was amplified by PCR (using KAPA HiFi HotStart DNA polymerase (KAPA Biosystems)) using the genomic DNA as a template and the primer set shown in Table 4, and purified using a commercially available nucleic acid purification kit (ISOSPIN PCR Product, Nippon Gene).
The ssODN (5 equivalents relative to […]) was added to Cas9/sgTTR-RNP to form a TTR-RNP-ssODN complex. […] The reaction solution was then heated at 65° C. for 5 minutes to inactivate Cas9-RNP, and the dsDNA was then subjected to electrophoresis on a 3% agarose gel at 100 V for 40 minutes. After electrophoresis, the gel was stained (GelRed, Biotium) and visualized using a fluorescent/visible light gel imaging system (Printgraph CMOS I, ATTO). Bands were quantified using image analysis software (ImageJ).
DNA cleavage was calculated using the following formula: in the formula, Int_full and Int_cleaved indicate the intensities derived from full length (uncleaved) and cleaved DNA, respectively.

TTR gene = test: Measurement of TTR-KO activity (serum TTR protein, ELISA); type: in vivo, mouse; settings: for serum TTR (5′ versus 3′ mismatch site): FIG. 8, CL4H6 LNP, sgTTR-G211, 7 days after administration
Description: Lipid nanoparticles encapsulating Cas9/sgTTR-RNP (Cas9/sgTTR-RNP-loaded lipid nanoparticles) were intravenously injected to BALB/c mice (female, 4 weeks old) at the indicated doses. One week after intravenous injection, the mice were euthanized, blood was collected, and serum was isolated by centrifugation. The TTR protein concentration in the serum was determined using a commercially available ELISA kit (Prealbumin ELISA Kit (mouse), Aviva Systems Biology) according to the manufacturer's protocol. The serum TTR protein concentration of untreated mice was taken as 100%, and the relative value (%) of the serum TTR protein concentration of mice administered with each lipid nanoparticle was taken as the knockout activity (TTR-KO activity) of the lipid nanoparticle.

[4] = Evaluation of biodistribution (fluorescently labeled RNP-ssODN); type: in vivo, mouse; settings: mice iv 2 mg RNP/kg, 1 hour; labeled TTR-RNP-ssODN in CL4H6 LNP (ssODN(−): free RNP, no LNP)
Description: For fluorescent labeling of lipid nanoparticles, the RNP-ssODN solution described above was mixed with a three-fold molar amount of a fluorescent molecule (DyLight 650 NHS ester) in DMSO and incubated for 30 min at ambient temperature in the dark. Unreacted fluorescent molecules were removed by ultrafiltration (Amicon Ultra-0.5, MWCO 3 kDa, Millipore).
Lipid nanoparticles encapsulating the obtained fluorescently labeled RNP-ssODN (fluorescently labeled RNP-ssODN-loaded lipid nanoparticles) were intravenously injected into BALB/c mice (female, 4 weeks old) at 2 mg RNP/kg body weight. One hour after intravenous injection, the mice were euthanized and various tissues, including blood, were collected. The collected blood was immediately diluted with 1% sodium dodecyl sulfate (SDS) solution. The collected tissues were immediately weighed and then homogenized in 1% sodium dodecyl sulfate (SDS) solution. The resulting homogenates were transferred to a black 96-well plate, and fluorescence was measured using a microplate reader (VarioskanLux, Thermo Fisher Scientific) at settings of λex=652 nm and λem=672 nm. Calibration curves were generated using fluorescently labeled RNP-ssODN-loaded lipid nanoparticles and blood or tissue homogenates similarly prepared from untreated mice. Biodistribution was expressed as the percentage of injected dose per tissue or blood (% injected dose).

[5] = blood 24 hours after Fluc mRNA-loaded LNP containing CL4F12-e-4, n=3
[6] = Fluc mRNA-loaded LNP, CL4F11-e-3/neutral lipid (DSPC or DOPE)/cholesterol/PEG-DMG 50/10/40/0.75 mol%
[7] = TTR-RNP-ssODN-loaded LNP, sgTTR-G211, CL4H6/DSPC/cholesterol/PEG-DMG 50/10/40/3.5 mol%, Table 11
[8] = TTR-KO activity in mice, TTR-RNP-ssODN-loaded LNP CL4H6/DSPC/cholesterol/PEG-DMG 50/10/40/3.5 mol%, sgTTR-G211 (TTR_3) or sgTTR-G269 (TTR_4)
[9] = TTR-RNP-ssODN-loaded LNP, sgTTR-G211, CL4H6/DSPC/cholesterol/PEG-DMG 50/10/40/3.5 mol%, Table 13

For `CCCCCCC(CCCC)CCCCC(=O)OCCCCCCC(O)(CCCCCCOC(=O)CCCCC(CCCC)CCCCCC)CCCCN(CCC)CCC` (centres unmarked) [CL4F12-e-4, 7-(4-(dipropylamino)butyl)-7-hydroxytridecane-1,13-diylbis(6-butyldodecanoate)], the “toxicity (blood test)” value ([1]; 24 hours after Fluc mRNA-loaded LNP) was “no particular toxicity was observed”, the ALB [1, 5] was 3.3 ± 0.1 g/dL and the ALT [1, 5] was 39.3 ± 3.4 IU/L. For the same molecule, the AMY [1, 5] was 1879.3 ± 136.2** IU/L, the AST [1, 5] was 95.3 ± 3.4** IU/L and the BUN [1, 5] was 25.3 ± 2.8 mg/dL. The CRE [1, 5] was 0.1 ± 0.01 mg/dL, the Ca [1, 5] was 11.9 ± 0.4** mg/dL and the Cl [1, 5] was 98 ± 0 mEq/L. For the same molecule, the GLU [1, 5] was 214 ± 8.2 mg/dL, the HDL-C [1, 5] was 78.7 ± 4.7** mg/dL and the IP [1, 5] was 11.1 ± 0.5 mg/dL. It also gave a K [1, 5] of 6.9 ± 0.2 mEq/L, an LDH [1, 5] of 732 ± 39.6 IU/L and a Na [1, 5] of 150.7 ± 1.9 mEq/L. For the same molecule, the T-BIL [1, 5] was 0.03 ± 0.01 mg/dL, the T-CHO [1, 5] was 154.7 ± 8.4** mg/dL and the TG [1, 5] was 134 ± 52.8 mg/dL. The TP [1, 5] was 4.9 ± 0.1 g/dL and the γ-GT [1, 5] was 6> IU/L.

With `CCCCCCCC/C=C\CCCCCCCC(=O)OC[C@H](COP(=O)(O)OCCN)OC(=O)CCCCCCC/C=C\CCCCCCCC` [DOPE, 1,2-dioleoyl-sn-glycero-3-phosphoethanolamine] the Number-average particle diameter [2, 6] was 55.7 nm, the PdI [2, 6] was 0.196 and the ζ-average [2, 6] was 82.1 nm. The ζ-potential [2, 6] was −2.35 mV, the Encapsulation rate [3, 6] was 89.1% and the “Fluc activity in liver and spleen” value (BALB/c mice) was “stable activity over a wide range of DOPE contents”.

B1: ssODN-TTR_3-80%: ssODN pairing with sgTTR-G211, 80% matched; SEQ ID NO 4 (nucleic acid)
DNA: AAAAAAAAAAAAAAAAAAAAAAAAAAAAAAAAAAAAAAAAAAAAAAAAAAAAAAAAAACTGTAGACGTGGCTGTTTAAAAAAAAAAAAAAAAAAAAAAAAAAAAAAAAAAAAAAAAAAAAAAAAAAAAAAAA
For B1, the “in vitro DNA cleavage activity” value (dsDNA from the TTR locus; FIG. 7, TTR-RNP-ssODN, sgTTR-G211, 37° C. 30 min) was “extremely low DNA cleavage activity”, the “relative DNA cleavage activity at 37° C.” value (dsDNA from the TTR locus; FIG. 22(A), sgTTR-G211 RNP, activity without ssODN = 100%) was “about 20%” and the Number-average particle diameter [2, 7] was 96.8 nm. It also gave a PdI [2, 7] of 0.112, a ζ-average [2, 7] of 141.3 nm and a ζ-potential [2, 7] of 2.88 mV. The “KO (%) 1st test” value (TTR gene; [8]) was 0.3%, the “KO (%) 2nd test” value (TTR gene; [8]) was 5.6% and the Encapsulation rate [3, 7] was 69.4%. For the same molecule, the ID %/tissue blood [4] was 11.71 ID %/tissue, the ID %/tissue kidney [4] was 0.16 ID %/tissue and the ID %/tissue liver [4] was 43.14 ID %/tissue. It also gave an ID %/tissue lung [4] of 0.33 ID %/tissue and an ID %/tissue spleen [4] of 3.21 ID %/tissue.

B2: ssODN-TTR_3-50° C.-5′: ssODN pairing with sgTTR-G211, mismatch on one side; SEQ ID NO 21 (nucleic acid)
DNA: B1 DNA with C59A, T75A, T76A
B2 showed a Number-average particle diameter [2, 9] of 86.8 nm, a PdI [2, 9] of 0.094 and a ζ-average [2, 9] of 124.9 nm. For the same molecule, the ζ-potential [2, 9] was 3.46 mV, the “serum TTR (5′ versus 3′ mismatch site)” value (TTR gene) was “about the same” and the Encapsulation rate [3, 9] was 56.6%.

B3: ssODN-TTR_3-50° C.-3′: ssODN pairing with sgTTR-G211, mismatch on one side; SEQ ID NO 20 (nucleic acid)
DNA: B1 DNA with A57T, A58G, G73A, T74A
B3 gave a Number-average particle diameter [2, 9] of 79.0 nm, a PdI [2, 9] of 0.166 and a ζ-average [2, 9] of 139.9 nm. The ζ-potential [2, 9] was 4.02 mV, the “serum TTR (5′ versus 3′ mismatch site)” value (TTR gene) was “about the same” and the Encapsulation rate [3, 9] was 58.7%.

B4: ssODN-TTR_3-24° C.-5′: ssODN pairing with sgTTR-G211, mismatch on one side; SEQ ID NO 19 (nucleic acid)
DNA: AAAAAAAAAAAAAAAAAAAAAAAAAAAAAAAAAAAAAAAAAAAAAAAAAAAAAAAATGCTGTAGTAAAAAAAAATTAAAAAAAAAAAAAAAAAAAAAAAAAAAAAAAAAAAAAAAAAAAAAAAAAAAAAAAA
B4 gave a Number-average particle diameter [2, 9] of 76.7 nm, a PdI [2, 9] of 0.147 and a ζ-average [2, 9] of 123.5 nm. The ζ-potential [2, 9] was 2.71 mV, the “serum TTR (5′ versus 3′ mismatch site)” value (TTR gene) was “about the same” and the Encapsulation rate [3, 9] was 61.5%.

B5: ssODN-TTR_3-0%: ssODN, 0% matched with sgTTR-G211; SEQ ID NO 9 (nucleic acid)
DNA: B4 DNA with T57A, G58A, C59A, T60A, G61A, T62A, A63T, G64A
With B5 the Number-average particle diameter [2, 7] was 67.2 nm, the PdI [2, 7] was 0.192 and the ζ-average [2, 7] was 128.4 nm. It also gave a ζ-potential [2, 7] of 3.49 mV, an Encapsulation rate [3, 7] of 89.4% and an ID %/tissue blood [4] of 8.48 ID %/tissue. The ID %/tissue kidney [4] was 0.17 ID %/tissue, the ID %/tissue liver [4] was 31.62 ID %/tissue and the ID %/tissue lung [4] was 0.18 ID %/tissue. For the same molecule, the ID %/tissue spleen [4] was 4.18 ID %/tissue.
